Reference: paper PMC3386930, “Altering APP Proteolysis: Increasing sAPPalpha Production by Targeting Dimerization of the APP Ectodomain” (PLoS ONE, 2012)

How the values were obtained:
[1] = target: MBP-eAPP_(230–624), maltose binding protein fusion protein containing residues 230–624 (UniProt P05067); experiment: small-angle X-ray scattering (SAXS); 150 µl MBP-eAPP230-624 (≈0.5 mg/ml) diluted with 400 µl of peptide solution, 20 minutes on ice, concentrated to 50 µl with 10-kDa cutoff concentrators
[2] = target: eAPP_(230–624), fragment of the APP ectodomain containing residues 230–624 (UniProt P05067); experiment: small-angle X-ray scattering (SAXS); eAPP fragment incubated on ice with Aβ oligomers or Aβ fragments (peptide less than 10 µM), concentrated and purified on Superdex S200 in 20 mM Tris pH 7.4, 100 mM sodium chloride, 2 mM EDTA
[3] = target: TRX-eAPP_(290–624), thioredoxin fusion protein containing residues 290–624 of APP695 (UniProt P05067); experiment: as above
eAPP230–624 [4] = target: T1, eAPP230–624 (Homo sapiens, UniProt P05067); experiment: Small-angle X-ray scattering (SAXS) of eAPP230–624 complexes; format: binding; settings: for MWcalc/MWseq: SAXS relative mass, MWseq 45-kDa for eAPP230–624, max. error ±0.2, monomer around 1.3, protein alone 2.0; for Dmax / Rg: SAXS, GNOM, eAPP230–624 with peptide; for Dmax: maximum dimension, max. estimated error ±10 Å; for Rg: radius of gyration, max. estimated error ±2 Å
T1 construct: made in house
Procedure: The samples were incubated on ice for 20 minutes and then concentrated to 50 µl with 10-kDa cutoff concentrators (Millipore). […] Samples of the filtrates were used for buffer subtraction.
The samples were then concentrated and purified with a Superdex S200 size-exclusion column with 20 mM Tris pH 7.4, 100 mM sodium chloride and 2 mM EDTA. Samples of the protein buffer from the size-exclusion columns were used for buffer subtraction.
Data collection and processing
Small-angle X-ray scattering data were collected using protein concentrations in the range of 0.5–3 mg/ml and an X-ray wavelength of 1.11 Å at beam line 12.3.1 (Advanced Light Source). Data were integrated with software customized for the beam line and processed with the program PRIMUS [30]. The program GNOM [31] was used to calculate the maximum dimension and the radius of gyration and to estimate the intensity of the scattering at zero angle for higher concentration samples.

eAPP230–624 [5] = target: T1, eAPP230–624; experiment: Intrinsic tryptophan fluorescence of eAPP230–624; format: binding
Procedure: The excitation spectra of the intrinsic tryptophan fluorescence were recorded using either a Shimadzu RF-530PC (Shimadzu Scientific Instruments) or a Spectramax XPS spectrophotometer (Molecular Devices).
Full emission spectra were measured with the Shimadzu RF-530PC using a 3 ml quartz cuvette, a 5 nm slit width and protein concentrations between 0.2–0.6 µM. […] For these larger dilutions, control titrations with the protein alone were used to generate a scaling matrix where the scale factor was both a function of wavelength and dilution. […] A similar scaling matrix was used to correct for the effect of dilution with DMSO. […] All titrations were performed at 24°C. The oligomers were stored on ice during the experiment.
These concentrations are analogous to concentrations used to create complexes for the small angle x-ray scattering analysis. The incubated material was diluted with PBS so that the final protein concentration was 0.5 µM. The spectra were recorded with the Shimadzu […].
For experiments with the Spectromax XPS plate reader, an excitation wavelength of 295 nm was used. This excitation wavelength was chosen to minimize both the contribution of tyrosine in the protein and the background fluorescence of the 96-well plates (Costar #3915).
For the quenching experiments, the data were analyzed by constructing Stern-Volmer plots, F0/F vs. Q, where Fo is the intensity of the fluorescence at zero concentration, F is the intensity of the fluorescence, and Q is the concentration of the quenching agent. When quenching is through either a static (binding) or dynamic (collisional) mechanism this plot is linear and follows the equation: [drawing 1] (1) where Ksv is the quenching constant. When both processes are present the Stern-Volmer plot is quadratic: [drawing 2] (2) where KD is the equilibrium constant associated with dynamic quenching and Ks is the equilibrium constant associated with static quenching. All parameters were determined using PRISM (GraphPad) and the appropriate non-linear curve fitting routine.
The centroid wavelength (λc) was calculated as: [drawing 3] (3) where I(λi) is the intensity observed for the wavelength (λi). The range of wavelengths was 310–390 nm.

[6] = Size-exclusion chromatography of Aβ fragments; format: physicochemical; settings: Superdex 75 column, PBS, indicates smaller dimers or monomers
Text: The arrow indicates the direction of shift of the fluorescence peak. […] The black line indicates the starting concentration and the blue line indicates the final concentration. The arrow indicates the direction of shift of the fluorescence peak.

neuronal cells = settings: similar activity; reference not printed with this sentence, 42 for APP319–335; cited from earlier work
Text: A 17-amino acid peptide (APP319–335) that contains the RERMS sequence is an example of such a compound. […] The mechanism by which the RERMS peptide enhances the producti ...

[7] = 0.64 µM eAPP230–624, RERMS 0–270 µM

Substance | MWcalc/MWseq (apparent mass of the sample over the sequence mass of the eAPP fragment) [1] | MWcalc/MWseq (apparent mass of the sample over the sequence mass of the eAPP fragment) [2] | MWcalc/MWseq (apparent mass of the sample over the sequence mass of the eAPP fragment) [3] | MWcalc/MWseq (eAPP230–624 [4]) | Dmax (eAPP230–624 [4]) [Å] | Rg (eAPP230–624 [4]) [Å] | inhibition of eAPP dimerization (in words) (eAPP230–624 [5]; legend of titration of 0.64 µM eAPP230–624 with 0–60 µM fragment) | pattern of changes in the intrinsic fluorescence (in words) (eAPP230–624 [5]; titration of 0.64 µM eAPP230–624, 345 nm) | elution later than the 7-kDa peak [6] [mls] | SAXS form of eAPP230–624 complex (in words) (eAPP230–624 [4]; SAXS of complex) | red-shift in the centroid wavelength (eAPP230–624 [5]; [7]) [nm] | red-shift in the peak position (eAPP230–624 [5]; [7]) | effect on intensity of intrinsic fluorescence (in words) (eAPP230–624 [5]; 0.64 µM eAPP230–624, RERMS 0–270 µM (1:0–1:420)) | fold reduced potency vs APP319–335 (neuronal cells)
Aβ1-28 (peptide) | 1.2 | 0.9 | 1.5 | – | – | – | – | – | – | – | – | – | – | –
Aβ1-28: Aβ fragment | – | – | – | 0.9 | 170 | 46 | inhibit eAPP dimerization | acted like Aβ1-40 dimers in terms of the changes in the intrinsic fluorescence | 0.5 | – | – | – | – | –
RERMS [The RERMS peptide itself (APP 328–332)] | – | – | – | 1.8 | 130 | 39 | – | – | – | dimer with a significantly smaller maximum dimension and radius of gyration than the native dimer | 1 | approximately 2 nm | quenches the intensity of the intrinsic fluorescence | 10 -fold
